Assay [1] deals with cone-specific G-protein transducin alpha subunit employed as a Gtα/Giα chimera, non-myristoylated (European robin). Briefly: SPR; Biacore 3000, CM5 chip, amine coupling; Gtα/Giα immobilised, ErCry4a 5-100 nM (and 500 nM) injected; global fit with a two-state-reaction model; 10 mM HEPES/NaOH pH 7.4, 150 mM NaCl, 10 mM MgCl2, 0.005% Tween-20, 3.4 mM EDTA.
The target of assay [2] is Gtα-EYFP (cone transducin alpha subunit, GNAT2, with C-terminal EYFP) (European robin). Briefly: FRET or BRET; acceptor photobleaching FRET in transiently transfected, fixed QNR/K2 quail neuroretina cells; donor mTurquoise on ErCry4a, acceptor EYFP; confocal microscope, FRET efficiency (Dpost - Dpre)/Dpost.

Consider “European robin cryptochrome 4a (ErCry4a), purified recombinant (natural protein)”, for which, in assay [1], the Kd was 19.8 nM, the ka1 (two-state-reaction model) worked out at 221000 M⁻¹ s⁻¹ and the kd1 (two-state-reaction model) worked out at 0.00438 s⁻¹.
On to “mTurquoise-ErCry4a (N-terminally tagged ErCry4a) (natural protein)”, for which the mean FRET efficiency in assay [2] came out at 24.5%.

These data come from paper PMC11569197.
